Ends that are not written are not given here. * marks the point of attachment. Nvoc = Nvoc photocleavable protecting (caging) group on the Lys side chain, COc1cc(COC(=O)*)c([N+](=O)[O-])cc1OC
Experiments:
Type in all cases: cell-based
hNaV1.6 = target: T1, hNaV1.6 (Homo sapiens, UniProt Q9UQD0); experiment: Photoactivation by UV illumination combined with automated patch-clamp; conditions: 100 nM, illumination 4 min, 365 nm, 45 mW/cm2; n = 14
T1 construct: expressed in transfected cells
Method: (§1) HEK293 cells stably expressing the hNaV1.1 (XM_011511604), hNaV1.2 (XM_017004655) or hNaV1.6 (XM_011538651) channels, CHO cells transiently expressing hKV1.2 (NG_027997.2) and CHO cells stably expressing hNaV1.7 (XM_011511618) or the hERG (NM_000238) channels were cultured in Dulbecco’s Modified Eagle’s Medium (DMEM) supplemented with 10% fetal bovine serum, 1 mM pyruvic acid, 4.5 g/L glucose, 4 mM glutamine, 800 µg/mL G418, 10 U/mL penicillin and 10 μg/mL streptomycin (Gibco, Grand Island, NY). All cell lines were incubated at 37 °C in a 5% CO2 atmosphere. For electrophysiological recordings, cells were detached with trypsin and floating single cells were diluted (~300,000 cells/mL) in medium contained (in mM): […], 4 KCl, 2 CaCl2, 1 MgCl2, 5 glucose, and 10 HEPES (pH 7.4, osmolarity 298 mOsm).
(§2) Automated patch-clamp recordings were performed using the SyncroPatch 384PE from Nanion (München, Germany). […] Current inhibition percentages were measured at equilibrium after 14 min peptide application time. […]
(§3) The pharmacology of HwTxIV-Nvoc, as well as the efficiency of the released product to block hNaV channels was studied using combined automated patch-clamp and UV illumination. After 2 min of control, HwTxIV-Nvoc was added to the external buffer and effects were recorded for 100 s prior to a 250 s-duration illumination for photocleavage induction of the caged compound. […]

hERG = target: T2, hERG (Homo sapiens, UniProt Q12809); experiment: Photocontrol of hERG current, automated patch-clamp; conditions: 100 nM; 365 nm, 45 mW/cm^2, 250 s
T2 construct: expressed in transfected cells
Method: as §1, §2, §3

hKV1.2 = target: T3, hKV1.2 (Homo sapiens, UniProt P16389); experiment: Photocontrol of KV1.2 current, automated patch-clamp; conditions: 100 nM; 365 nm, 45 mW/cm^2, 250 s
T3 construct: expressed in transfected cells; host or cells: CHO (transient)
Method: as §1, §2, §3

T1 sequence (Q9UQD0 whole entry): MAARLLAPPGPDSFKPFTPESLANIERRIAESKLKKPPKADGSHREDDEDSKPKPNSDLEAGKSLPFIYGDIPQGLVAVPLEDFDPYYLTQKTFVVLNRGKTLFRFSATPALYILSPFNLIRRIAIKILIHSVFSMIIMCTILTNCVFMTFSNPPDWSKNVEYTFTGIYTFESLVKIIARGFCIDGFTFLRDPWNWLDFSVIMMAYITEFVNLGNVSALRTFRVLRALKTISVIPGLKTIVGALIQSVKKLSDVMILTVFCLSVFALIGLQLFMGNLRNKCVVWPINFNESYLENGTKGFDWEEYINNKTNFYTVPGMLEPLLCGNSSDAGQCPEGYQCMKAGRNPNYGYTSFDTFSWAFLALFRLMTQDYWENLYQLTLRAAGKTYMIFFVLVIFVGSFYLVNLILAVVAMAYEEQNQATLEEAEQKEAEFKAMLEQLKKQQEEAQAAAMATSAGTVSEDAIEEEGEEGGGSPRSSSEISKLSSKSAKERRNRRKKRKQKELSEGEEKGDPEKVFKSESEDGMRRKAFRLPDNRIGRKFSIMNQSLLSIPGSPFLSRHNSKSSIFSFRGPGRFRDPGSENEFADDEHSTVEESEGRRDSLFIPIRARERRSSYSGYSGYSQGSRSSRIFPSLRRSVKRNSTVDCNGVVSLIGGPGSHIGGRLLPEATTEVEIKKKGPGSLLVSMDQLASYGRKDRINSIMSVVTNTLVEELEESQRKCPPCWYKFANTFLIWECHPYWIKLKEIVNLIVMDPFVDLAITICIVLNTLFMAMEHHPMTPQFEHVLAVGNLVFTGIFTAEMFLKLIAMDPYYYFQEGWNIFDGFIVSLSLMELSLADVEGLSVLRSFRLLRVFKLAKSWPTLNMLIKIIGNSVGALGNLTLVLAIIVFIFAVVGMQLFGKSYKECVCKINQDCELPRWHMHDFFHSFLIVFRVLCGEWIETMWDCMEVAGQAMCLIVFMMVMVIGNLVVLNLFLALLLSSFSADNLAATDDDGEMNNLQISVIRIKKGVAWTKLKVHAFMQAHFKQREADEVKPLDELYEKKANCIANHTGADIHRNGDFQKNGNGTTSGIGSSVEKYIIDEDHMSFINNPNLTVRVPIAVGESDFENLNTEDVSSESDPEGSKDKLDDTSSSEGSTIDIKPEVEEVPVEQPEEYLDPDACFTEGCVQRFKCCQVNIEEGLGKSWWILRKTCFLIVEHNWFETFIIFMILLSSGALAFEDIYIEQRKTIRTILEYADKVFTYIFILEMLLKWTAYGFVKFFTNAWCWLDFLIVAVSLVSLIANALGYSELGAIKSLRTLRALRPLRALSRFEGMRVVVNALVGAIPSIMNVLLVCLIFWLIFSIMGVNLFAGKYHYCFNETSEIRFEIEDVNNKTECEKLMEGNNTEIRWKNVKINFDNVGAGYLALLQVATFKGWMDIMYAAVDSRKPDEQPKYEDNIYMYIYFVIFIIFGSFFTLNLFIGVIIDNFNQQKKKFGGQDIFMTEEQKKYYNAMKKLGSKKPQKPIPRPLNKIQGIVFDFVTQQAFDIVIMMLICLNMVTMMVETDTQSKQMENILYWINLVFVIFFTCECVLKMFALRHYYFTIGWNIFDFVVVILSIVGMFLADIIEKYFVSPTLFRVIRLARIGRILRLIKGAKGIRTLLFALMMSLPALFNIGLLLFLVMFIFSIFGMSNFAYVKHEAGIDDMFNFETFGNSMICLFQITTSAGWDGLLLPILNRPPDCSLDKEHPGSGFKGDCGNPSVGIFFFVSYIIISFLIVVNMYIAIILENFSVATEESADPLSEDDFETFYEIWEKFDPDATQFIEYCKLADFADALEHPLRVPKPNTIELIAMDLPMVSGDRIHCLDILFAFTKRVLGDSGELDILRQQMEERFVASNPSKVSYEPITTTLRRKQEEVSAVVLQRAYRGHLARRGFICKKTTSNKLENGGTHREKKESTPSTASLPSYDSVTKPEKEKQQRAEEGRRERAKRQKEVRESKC
T3 sequence (P16389 whole entry): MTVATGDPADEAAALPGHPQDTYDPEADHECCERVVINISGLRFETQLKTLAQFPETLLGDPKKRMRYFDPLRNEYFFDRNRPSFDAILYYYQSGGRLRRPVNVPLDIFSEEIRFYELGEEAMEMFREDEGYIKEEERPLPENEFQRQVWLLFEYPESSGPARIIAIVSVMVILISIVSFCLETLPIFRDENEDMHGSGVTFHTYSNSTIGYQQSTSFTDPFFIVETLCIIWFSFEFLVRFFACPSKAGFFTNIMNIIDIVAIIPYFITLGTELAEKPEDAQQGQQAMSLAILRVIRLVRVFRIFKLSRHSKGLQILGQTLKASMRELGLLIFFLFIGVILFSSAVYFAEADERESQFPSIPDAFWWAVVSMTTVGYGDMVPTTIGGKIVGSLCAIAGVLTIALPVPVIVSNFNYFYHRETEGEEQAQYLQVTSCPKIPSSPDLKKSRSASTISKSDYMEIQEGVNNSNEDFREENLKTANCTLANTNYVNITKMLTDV
T2 sequence (Q12809 whole entry): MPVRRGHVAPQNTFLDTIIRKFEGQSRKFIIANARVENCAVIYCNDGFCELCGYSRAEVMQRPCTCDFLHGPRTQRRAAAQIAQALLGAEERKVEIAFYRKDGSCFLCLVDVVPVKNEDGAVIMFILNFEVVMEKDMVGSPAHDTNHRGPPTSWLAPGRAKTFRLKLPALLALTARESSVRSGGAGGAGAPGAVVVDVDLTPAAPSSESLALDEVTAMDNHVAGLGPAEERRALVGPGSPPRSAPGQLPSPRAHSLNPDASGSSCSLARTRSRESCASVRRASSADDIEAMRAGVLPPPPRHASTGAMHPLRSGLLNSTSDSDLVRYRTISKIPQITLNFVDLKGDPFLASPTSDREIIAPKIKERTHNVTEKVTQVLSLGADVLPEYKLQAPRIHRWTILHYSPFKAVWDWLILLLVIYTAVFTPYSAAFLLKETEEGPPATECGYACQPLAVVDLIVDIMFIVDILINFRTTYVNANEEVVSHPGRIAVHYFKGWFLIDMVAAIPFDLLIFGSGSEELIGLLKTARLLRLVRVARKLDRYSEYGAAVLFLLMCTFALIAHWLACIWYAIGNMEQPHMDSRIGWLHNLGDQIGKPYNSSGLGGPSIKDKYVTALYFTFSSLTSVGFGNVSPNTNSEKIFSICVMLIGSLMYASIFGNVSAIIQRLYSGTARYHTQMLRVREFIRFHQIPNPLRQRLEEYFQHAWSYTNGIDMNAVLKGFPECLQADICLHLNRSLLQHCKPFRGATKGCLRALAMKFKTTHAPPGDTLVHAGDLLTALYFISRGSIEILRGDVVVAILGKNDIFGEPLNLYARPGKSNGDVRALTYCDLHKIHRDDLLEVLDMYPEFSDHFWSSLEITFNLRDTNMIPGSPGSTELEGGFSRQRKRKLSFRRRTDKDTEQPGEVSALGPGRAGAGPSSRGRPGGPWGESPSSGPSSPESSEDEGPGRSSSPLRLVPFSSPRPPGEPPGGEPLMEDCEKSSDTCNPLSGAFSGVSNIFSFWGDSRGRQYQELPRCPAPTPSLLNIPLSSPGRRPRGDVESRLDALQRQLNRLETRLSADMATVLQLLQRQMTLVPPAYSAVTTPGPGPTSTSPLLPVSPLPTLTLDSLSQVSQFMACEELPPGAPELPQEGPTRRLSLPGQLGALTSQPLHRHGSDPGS

Row | Substance | effect of Nvoc photolysis by-product on hNaV1.6 (hNaV1.6) | UV-dependent effect on hERG current (hERG) | UV-dependent effect on KV1.2 current (hKV1.2)
1 | BeKm1-Nvoc: BeKm1 (hERG blocker) caged with a Nvoc protecting group on K^18 (RPTDIKCSESYQCFPVCK(Nvoc)SRFGKTNGRCVNGFCDCF; ends and bridges not checked; UniProt Q9BKB7 22-57, looked up) | inert | block | –
2 | charybdotoxin-Nvoc | – | – | block
